Sequences and labels used below:
B1: antibody D105N_G2_YTE (antibody)
heavy: QVQLVQSGAEVKKPGASVKVSCKASGYTFTNHYMHWVRQAPGQGLEWMGIINPISGSTSNAQKFQGRVTMTRDTSTSTVYMELSSLRSEDTAVYYCARDIVDAFNFWGQGTMVTVSSASTKGPSVFPLAPCSRSTSESTAALGCLVKDYFPEPVTVSWNSGALTSGVHTFPAVLQSSGLYSLSSVVTVPSSNFGTQTYTCNVDHKPSNTKVDKTVERKCCVECPPCPAPPVAGPSVFLFPPKPKDTLYITREPEVTCVVVDVSHEDPEVQFNWYVDGVEVHNAKTKPREEQFNSTFRVVSVLTVVHQDWLNGKEYKCKVSNKGLPAPIEKTISKTKGQPREPQVYTLPPSREEMTKNQVSLTCLVKGFYPSDIAVEWESNGQPENNYKTTPPMLDSDGSFFLYSKLTVDKSRWQQGNVFSCSVMHEALHNHYTQKSLSLSPGK
light: AIQLTQSPSSLSASVGDRVTITCRASQGISSALVWYQQKPGKAPKLLIYDASSLESGVPSRFSGSGSGTDFTLTISSLQPEDFATYYCQQFNDYFTFGPGTKVDIK
B2: antibody D105N_IgG4PE_R409K_LS (antibody)
heavy: QVQLVQSGAEVKKPGASVKVSCKASGYTFTNHYMHWVRQAPGQGLEWMGIINPISGSTSNAQKFQGRVTMTRDTSTSTVYMELSSLRSEDTAVYYCARDIVDAFNFWGQGTMVTVSSASTKGPSVFPLAPCSRSTSESTAALGCLVKDYFPEPVTVSWNSGALTSGVHTFPAVLQSSGLYSLSSVVTVPSSSLGTKTYTCNVDHKPSNTKVDKRVESKYGPPCPPCPAPEFEGGPSVFLFPPKPKDTLMISRTPEVTCVVVDVSQEDPEVQFNWYVDGVEVHNAKTKPREEQFNSTYRVVSVLTVLHQDWLNGKEYKCKVSNKGLPSSIEKTISKAKGQPREPQVYTLPPSQEEMTKNQVSLTCLVKGFYPSDIAVEWESNGQPENNYKTTPPVLDSDGSFFLYSKLTVDKSRWQEGNVFSCSVLHEALHSHYTQKSLSLSLGK
light: AIQLTQSPSSLSASVGDRVTITCRASQGISSALVWYQQKPGKAPKLLIYDASSLESGVPSRFSGSGSGTDFTLTISSLQPEDFATYYCQQFNDYFTFGPGTKVDIK
B3: antibody I100Y_G2_YTE (antibody)
heavy: QVQLVQSGAEVKKPGASVKVSCKASGYTFTNHYMHWVRQAPGQGLEWMGIINPISGSTSNAQKFQGRVTMTRDTSTSTVYMELSSLRSEDTAVYYCARDYVDAFDFWGQGTMVTVSSASTKGPSVFPLAPCSRSTSESTAALGCLVKDYFPEPVTVSWNSGALTSGVHTFPAVLQSSGLYSLSSVVTVPSSNFGTQTYTCNVDHKPSNTKVDKTVERKCCVECPPCPAPPVAGPSVFLFPPKPKDTLYITREPEVTCVVVDVSHEDPEVQFNWYVDGVEVHNAKTKPREEQFNSTFRVVSVLTVVHQDWLNGKEYKCKVSNKGLPAPIEKTISKTKGQPREPQVYTLPPSREEMTKNQVSLTCLVKGFYPSDIAVEWESNGQPENNYKTTPPMLDSDGSFFLYSKLTVDKSRWQQGNVFSCSVMHEALHNHYTQKSLSLSPGK
light: AIQLTQSPSSLSASVGDRVTITCRASQGISSALVWYQQKPGKAPKLLIYDASSLESGVPSRFSGSGSGTDFTLTISSLQPEDFATYYCQQFNDYFTFGPGTKVDIK
B4: antibody I100A_IgG4PE_R409K_LS (antibody)
heavy: QVQLVQSGAEVKKPGASVKVSCKASGYTFTNHYMHWVRQAPGQGLEWMGIINPISGSTSNAQKFQGRVTMTRDTSTSTVYMELSSLRSEDTAVYYCARDAVDAFDFWGQGTMVTVSSASTKGPSVFPLAPCSRSTSESTAALGCLVKDYFPEPVTVSWNSGALTSGVHTFPAVLQSSGLYSLSSVVTVPSSSLGTKTYTCNVDHKPSNTKVDKRVESKYGPPCPPCPAPEFEGGPSVFLFPPKPKDTLMISRTPEVTCVVVDVSQEDPEVQFNWYVDGVEVHNAKTKPREEQFNSTYRVVSVLTVLHQDWLNGKEYKCKVSNKGLPSSIEKTISKAKGQPREPQVYTLPPSQEEMTKNQVSLTCLVKGFYPSDIAVEWESNGQPENNYKTTPPVLDSDGSFFLYSKLTVDKSRWQEGNVFSCSVLHEALHSHYTQKSLSLSLGK
light: AIQLTQSPSSLSASVGDRVTITCRASQGISSALVWYQQKPGKAPKLLIYDASSLESGVPSRFSGSGSGTDFTLTISSLQPEDFATYYCQQFNDYFTFGPGTKVDIK
B5: antibody I100H_G2_YTE (antibody)
heavy: QVQLVQSGAEVKKPGASVKVSCKASGYTFTNHYMHWVRQAPGQGLEWMGIINPISGSTSNAQKFQGRVTMTRDTSTSTVYMELSSLRSEDTAVYYCARDHVDAFDFWGQGTMVTVSSASTKGPSVFPLAPCSRSTSESTAALGCLVKDYFPEPVTVSWNSGALTSGVHTFPAVLQSSGLYSLSSVVTVPSSNFGTQTYTCNVDHKPSNTKVDKTVERKCCVECPPCPAPPVAGPSVFLFPPKPKDTLYITREPEVTCVVVDVSHEDPEVQFNWYVDGVEVHNAKTKPREEQFNSTFRVVSVLTVVHQDWLNGKEYKCKVSNKGLPAPIEKTISKTKGQPREPQVYTLPPSREEMTKNQVSLTCLVKGFYPSDIAVEWESNGQPENNYKTTPPMLDSDGSFFLYSKLTVDKSRWQQGNVFSCSVMHEALHNHYTQKSLSLSPGK
light: AIQLTQSPSSLSASVGDRVTITCRASQGISSALVWYQQKPGKAPKLLIYDASSLESGVPSRFSGSGSGTDFTLTISSLQPEDFATYYCQQFNDYFTFGPGTKVDIK
B6: antibody I100H_IgG4PE_R409K_LS (antibody)
heavy: QVQLVQSGAEVKKPGASVKVSCKASGYTFTNHYMHWVRQAPGQGLEWMGIINPISGSTSNAQKFQGRVTMTRDTSTSTVYMELSSLRSEDTAVYYCARDHVDAFDFWGQGTMVTVSSASTKGPSVFPLAPCSRSTSESTAALGCLVKDYFPEPVTVSWNSGALTSGVHTFPAVLQSSGLYSLSSVVTVPSSSLGTKTYTCNVDHKPSNTKVDKRVESKYGPPCPPCPAPEFEGGPSVFLFPPKPKDTLMISRTPEVTCVVVDVSQEDPEVQFNWYVDGVEVHNAKTKPREEQFNSTYRVVSVLTVLHQDWLNGKEYKCKVSNKGLPSSIEKTISKAKGQPREPQVYTLPPSQEEMTKNQVSLTCLVKGFYPSDIAVEWESNGQPENNYKTTPPVLDSDGSFFLYSKLTVDKSRWQEGNVFSCSVLHEALHSHYTQKSLSLSLGK
light: AIQLTQSPSSLSASVGDRVTITCRASQGISSALVWYQQKPGKAPKLLIYDASSLESGVPSRFSGSGSGTDFTLTISSLQPEDFATYYCQQFNDYFTFGPGTKVDIK
B7: antibody I100A_G2_YTE (antibody)
heavy: QVQLVQSGAEVKKPGASVKVSCKASGYTFTNHYMHWVRQAPGQGLEWMGIINPISGSTSNAQKFQGRVTMTRDTSTSTVYMELSSLRSEDTAVYYCARDAVDAFDFWGQGTMVTVSSASTKGPSVFPLAPCSRSTSESTAALGCLVKDYFPEPVTVSWNSGALTSGVHTFPAVLQSSGLYSLSSVVTVPSSNFGTQTYTCNVDHKPSNTKVDKTVERKCCVECPPCPAPPVAGPSVFLFPPKPKDTLYITREPEVTCVVVDVSHEDPEVQFNWYVDGVEVHNAKTKPREEQFNSTFRVVSVLTVVHQDWLNGKEYKCKVSNKGLPAPIEKTISKTKGQPREPQVYTLPPSREEMTKNQVSLTCLVKGFYPSDIAVEWESNGQPENNYKTTPPMLDSDGSFFLYSKLTVDKSRWQQGNVFSCSVMHEALHNHYTQKSLSLSPGK
light: AIQLTQSPSSLSASVGDRVTITCRASQGISSALVWYQQKPGKAPKLLIYDASSLESGVPSRFSGSGSGTDFTLTISSLQPEDFATYYCQQFNDYFTFGPGTKVDIK
B8: antibody D105N_G2_LS (antibody)
heavy: QVQLVQSGAEVKKPGASVKVSCKASGYTFTNHYMHWVRQAPGQGLEWMGIINPISGSTSNAQKFQGRVTMTRDTSTSTVYMELSSLRSEDTAVYYCARDIVDAFNFWGQGTMVTVSSASTKGPSVFPLAPCSRSTSESTAALGCLVKDYFPEPVTVSWNSGALTSGVHTFPAVLQSSGLYSLSSVVTVPSSNFGTQTYTCNVDHKPSNTKVDKTVERKCCVECPPCPAPPVAGPSVFLFPPKPKDTLMISRTPEVTCVVVDVSHEDPEVQFNWYVDGVEVHNAKTKPREEQFNSTFRVVSVLTVVHQDWLNGKEYKCKVSNKGLPAPIEKTISKTKGQPREPQVYTLPPSREEMTKNQVSLTCLVKGFYPSDIAVEWESNGQPENNYKTTPPMLDSDGSFFLYSKLTVDKSRWQQGNVFSCSVLHEALHSHYTQKSLSLSPGK
light: AIQLTQSPSSLSASVGDRVTITCRASQGISSALVWYQQKPGKAPKLLIYDASSLESGVPSRFSGSGSGTDFTLTISSLQPEDFATYYCQQFNDYFTFGPGTKVDIK
B9: antibody I100H_G2_LS (antibody)
heavy: QVQLVQSGAEVKKPGASVKVSCKASGYTFTNHYMHWVRQAPGQGLEWMGIINPISGSTSNAQKFQGRVTMTRDTSTSTVYMELSSLRSEDTAVYYCARDHVDAFDFWGQGTMVTVSSASTKGPSVFPLAPCSRSTSESTAALGCLVKDYFPEPVTVSWNSGALTSGVHTFPAVLQSSGLYSLSSVVTVPSSNFGTQTYTCNVDHKPSNTKVDKTVERKCCVECPPCPAPPVAGPSVFLFPPKPKDTLMISRTPEVTCVVVDVSHEDPEVQFNWYVDGVEVHNAKTKPREEQFNSTFRVVSVLTVVHQDWLNGKEYKCKVSNKGLPAPIEKTISKTKGQPREPQVYTLPPSREEMTKNQVSLTCLVKGFYPSDIAVEWESNGQPENNYKTTPPMLDSDGSFFLYSKLTVDKSRWQQGNVFSCSVLHEALHSHYTQKSLSLSPGK
light: AIQLTQSPSSLSASVGDRVTITCRASQGISSALVWYQQKPGKAPKLLIYDASSLESGVPSRFSGSGSGTDFTLTISSLQPEDFATYYCQQFNDYFTFGPGTKVDIK
B10: antibody I100A_G2_LS (antibody)
heavy: QVQLVQSGAEVKKPGASVKVSCKASGYTFTNHYMHWVRQAPGQGLEWMGIINPISGSTSNAQKFQGRVTMTRDTSTSTVYMELSSLRSEDTAVYYCARDAVDAFDFWGQGTMVTVSSASTKGPSVFPLAPCSRSTSESTAALGCLVKDYFPEPVTVSWNSGALTSGVHTFPAVLQSSGLYSLSSVVTVPSSNFGTQTYTCNVDHKPSNTKVDKTVERKCCVECPPCPAPPVAGPSVFLFPPKPKDTLMISRTPEVTCVVVDVSHEDPEVQFNWYVDGVEVHNAKTKPREEQFNSTFRVVSVLTVVHQDWLNGKEYKCKVSNKGLPAPIEKTISKTKGQPREPQVYTLPPSREEMTKNQVSLTCLVKGFYPSDIAVEWESNGQPENNYKTTPPMLDSDGSFFLYSKLTVDKSRWQQGNVFSCSVLHEALHSHYTQKSLSLSPGK
light: AIQLTQSPSSLSASVGDRVTITCRASQGISSALVWYQQKPGKAPKLLIYDASSLESGVPSRFSGSGSGTDFTLTISSLQPEDFATYYCQQFNDYFTFGPGTKVDIK

Sequence of Recombinant Human FGF-23 (R&D Systems, Cat No. 2604-FG-025/CF) (human) (Q9GZV9 25-251 limits assumed): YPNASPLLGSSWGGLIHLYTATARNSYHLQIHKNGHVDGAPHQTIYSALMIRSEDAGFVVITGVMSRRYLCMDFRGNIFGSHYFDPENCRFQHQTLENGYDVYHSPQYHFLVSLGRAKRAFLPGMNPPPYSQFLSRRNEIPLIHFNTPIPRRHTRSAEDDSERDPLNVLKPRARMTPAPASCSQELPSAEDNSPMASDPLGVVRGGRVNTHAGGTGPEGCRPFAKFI

The assay concerns the target Recombinant Human FGF-23 (R&D Systems, Cat No. 2604-FG-025/CF) (human) (UniProt Q9GZV9). Put plainly: cell-based or functional assay.
Turning to B1, the FGF23 neutralizing activity IC50 (luciferase promoter assay) was determined as 0.0124 µg/mL.
As for B2, the FGF23 neutralizing activity IC50 (luciferase promoter assay) came out at 0.0117 µg/mL.
As for B3, the figure is 0.0029 µg/mL; as for B4, 0.0066 µg/mL.
As for B5, the figure is 0.0089 µg/mL; as for B6, 0.0131 µg/mL.
Regarding B7, the FGF23 neutralizing activity IC50 (luciferase promoter assay) is 0.005 µg/mL.
As for B8, the figure is 0.0124 µg/mL; as for B9, 0.013 µg/mL; as for B10, 0.0024 µg/mL.

The values are drawn from patent US20250163140A1.
